B1: FLT3L: fms-like tyrosine kinase receptor-3 ligand (protein, UniProt P49771 27-235, looked up)
Fms-related tyrosine kinase 3 …: TQDCSFQHSPISSDFAVKIRELSDYLLQDYPVTVASNLQDEELCGGLWRLVLAQRWMERLKTVAGSKMQGLLERVNTEIHFVTKCAFQPPPSCLRFVQTNISRLLQETSEQLVALKPWITRQNFSRCLELQCQPDSSTLPPPWSPRPLEATAPTAPQPPLLLLLLLPVGLLLLAAAWCLHWQRTRRRTPRPGEQVPPVPSPQDLLLVEH

Experiments:
[1] = system: AML blasts; experiment: SCNP phospho-flow signaling nodes in AML PBMC (Example 2, Study No. 1); format: cell-based, human; conditions: for Mean Value of CRs: CR patients; for Mean Value of CRs / Mean Value of NRs: Study No. 1; for Mean Value of NRs: NR patients
Procedure: Frozen cells are thawed in a 37° C. water bath and gently resuspended in the vial and transferred to the 15 mL conical tube. The 15 mL tube is centrifuged at 930 RPM (200×g) for 8 minutes at room temperature. The supernatant is aspirated and the pellet is gently resuspended in 1 mL media A. The cell suspension is filtered through a 70 um cell strainer into a new 15 mL tube. The cell strainer is rinsed with 1 mL media A and another 12 ml of media A into the 15 mL tube. The cells are mixed into an even suspension. A 20 μL aliquot is immediately removed into a 96-well plate containing 180 μL PBS+4% FBS+CD45 Alexa 700+PI to determine cell count and viability post spin. After the determination, the 15 mL tubes are centrifuged at 930 RPM (200×g) for 8 minutes at room temperature. The supernatant is aspirated and the cell pellet is gently resuspended in 4 mL PBS+4 μL Amine Aqua and incubated for 15 min in a 37° C. incubator. 10 mL RPMI+1% FBS is added to the cell suspension and the tube is inverted to mix the cells. The 15 mL tubes are centrifuged at 930 RPM (200×g) for 8 minutes at room temperature. The cells are resuspended in Media A at the desired cell concentration (1.25×10^6/mL). For samples with low numbers of cells (<18.5×10^6), the cells are resuspended in up to 15 mL media. For samples with high numbers of cells (>18.5×10^6), the volume is raised to 10 mL with media A and the desired volume is transferred to a new 15 mL tube, and the cell concentration is adjusted to 1.25×10^6 cells/ml. 1.6 mL of the above cell suspension (concentration at 1.25×10^6 cells/ml) is transferred into wells of a multi-well plate. From this plate, 80 ul is dispensed into each well of a subsequent plate. The plates are covered with a lid (Nunc) and placed in a 37° C. incubator for 2 hours to rest.
A concentration for each stimulant that is five folds more (5×) than the final concentration is prepared using Media A as diluent. 5× stimuli are arrayed into wells of a standard 96 well v-bottom plate that correspond to the wells on the plate with cells to be stimulated.
Adding the stimulant: The cell plate(s) are taken out of the incubator and placed in a 37° C. water bath next to the pipette apparatus. The cell plate is taken from the water bath and gently swirled to resuspend any settled cells. With pipettor, the stimulant is dispensed into the cell plate and vortexed at “7” for 5 seconds. The deep well plate is put back into the water bath.
The plate is covered with foil sealer and incubated in a 37° C. water bath for 10 minutes. The plate is spun for 6 minutes at 2000 rpm at room temperature. The cells are aspirated using a 96 well plate aspirator (VP Scientific). The plate is vortexed to resuspend cell pellets in the residual volume. The pellet is ensured to be dispersed before the Methanol step (see cell permeabilization) or clumping will occur.
Cell Permeabilization: Permeability agent, for example methanol, is added slowly and while the plate is vortexing. To do this, the cell plate is placed on titer plate shaker and made sure it is secure. The plate is set to shake using the highest setting. A pipetter is used to add 0.6 mls of 100% methanol to the plate wells. The plate(s) are put on ice until this step has been completed for all plates. Plates are covered with a foil seal using the plate roller to achieve a tight fit. At this stage the plates can be stored at −80° C.
Cells are thawed if frozen. Cells are pelleted at 2000 rpm 5 minutes. Supernatant is aspirated with vacuum aspirator. Plate is vortexed on a “plate vortex” for 5-10 seconds. Cells are washed with 1 mL FACS buffer. Repeat the spin, aspirate and vortex steps as above. 50 μL of FACS/stain buffer with the desired, previously optimized, antibody cocktail is added to two rows of cells at a time and agitate the plate. The plate is covered and incubated in a shaker for 30 minutes at room temperature (RT). During this incubation, the compensation plate is prepared.

[2] = system: AML blasts; experiment: SCNP signaling and apoptosis nodes in AML BMMC (Example 4, Study No. 2); format: cell-based, human; conditions: Study No.2
[3] = Fold = log2(MFI modulated) - log2(MFI unmodulated), 9 CRs, Study No.1
[4] = Fold = log2(MFI modulated) - log2(MFI unmodulated), 25 NRs, Study No.1
[5] = Fold metric, Study No. 1, CRp patient included in NR group
[6] = Total Phospho metric, Study No. 1, CRp patient included in NR group
[7] = read-out p-CREB, metric TotalPhospho
[8] = read-out p-Erk, metric TotalPhospho
[9] = read-out p-Plcγ2, metric TotalPhospho

| Molecule | p-Akt Fold, Mean Value of CRs [1, 3] | p-Akt Fold, Mean Value of NRs [1, 4] | Mean Value of CRs, p-Akt [1, 5] | Mean Value of CRs, p-Erk [1, 5] | Mean Value of NRs, p-Akt [1, 5] | Mean Value of NRs, p-Erk [1, 5] | Mean Value of CRs, p-CREB [1, 6] | Mean Value of CRs, p-Plcγ2 [1, 6] | Mean Value of NRs, p-CREB [1, 6] | Mean Value of NRs, p-Plcγ2 [1, 6] | Mean Value of CRs ([1]; read-out p-Akt, metric Fold) | Mean Value of NRs ([1]; read-out p-Akt, metric Fold) | Mean Value of CRs [1, 7] | Mean Value of NRs [1, 7] | Mean Value of CRs [1, 9] | Mean Value of NRs [1, 9] | Mean Value of CRs, p-S6 Fold ([2]; patients age 60 and older) | Mean Value of NRs, p-S6 Fold ([2]; patients age 60 and older) | Mean Value of CRs, p-PLCy2 TotalPhospho ([2]; patients with De Novo AML) | Mean Value of NRs, p-PLCy2 TotalPhospho ([2]; patients with De Novo AML) | further results |
| --- | --- | --- | --- | --- | --- | --- | --- | --- | --- | --- | --- | --- | --- | --- | --- | --- | --- | --- | --- | --- | --- |
| SCF: stem cell factor, ligand of c-Kit | 0.12 | 0.57 | 0.09 | −0.06 | 0.56 | 0.11 | 1.32 | 1.80 | 1.92 | 2.79 | 0.12 | 0.57 | 1.38 | 1.92 | 1.87 | 2.81 | 0.14 | 0.70 | 1.29 | 1.96 | Mean Value of CRs ([1]; read-out p-Erk, metric Fold): −0.05; Mean Value of NRs ([1]; read-out p-Erk, metric Fold): 0.11; Mean Value of CRs [1, 8]: 1.87; Mean Value of NRs [1, 8]: 2.28; Mean Value of CRs, p-Akt Fold ([2]; patients with De Novo AML): 0.52; Mean Value of CRs, p-S6 Fold ([2]; patients with De Novo AML): 1.05; Mean Value of NRs, p-Akt Fold ([2]; patients with De Novo AML): −0.20; Mean Value of NRs, p-S6 Fold ([2]; patients with De Novo AML): 0.43; Mean Value of CRs, p-S6 Fold ([2]; patients with Secondary AML): 0.21; Mean Value of NRs, p-S6 Fold ([2]; patients with Secondary AML): 1.28 |
| B1 | 0.18 | 0.64 | 0.10 | 0.08 | 0.65 | 0.33 | 1.39 | 1.81 | 2.13 | 2.78 | 0.18 | 0.64 | 1.50 | 2.12 | 1.88 | 2.80 | −0.06 | 0.67 | 1.26 | 1.95 | p-S6 Fold, Mean Value of CRs [1, 3]: 0.28; p-S6 Fold, Mean Value of NRs [1, 4]: 0.81; Mean Value of CRs, p-CREB [1, 5]: 0.07; Mean Value of CRs, p-Plcγ2 [1, 5]: −0.14; Mean Value of CRs, p-S6 [1, 5]: 0.14; Mean Value of NRs, p-CREB [1, 5]: 0.36; Mean Value of NRs, p-Plcγ2 [1, 5]: −0.08; Mean Value of NRs, p-S6 [1, 5]: 0.83; Mean Value of CRs ([1]; read-out p-S6, metric Fold): 0.28; Mean Value of NRs ([1]; read-out p-S6, metric Fold): 0.81; Mean Value of CRs, p-Akt Fold ([2]; patients age 60 and older): 0.00; Mean Value of CRs, p-Erk Fold ([2]; patients age 60 and older): 0.01; Mean Value of NRs, p-Akt Fold ([2]; patients age 60 and older): 0.36; Mean Value of NRs, p-Erk Fold ([2]; patients age 60 and older): 0.21; Mean Value of CRs, P-Erk Fold ([2]; patients with Secondary AML): 0.00; Mean Value of CRs, p-Akt Fold ([2]; patients with Secondary AML): 0.19; Mean Value of CRs, p-S6 Fold ([2]; patients with Secondary AML): 0.12; Mean Value of NRs, P-Erk Fold ([2]; patients with Secondary AML): 0.32; Mean Value of NRs, p-Akt Fold ([2]; patients with Secondary AML): 0.60; Mean Value of NRs, p-S6 Fold ([2]; patients with Secondary AML): 1.02 |

Reference: patent US20160223554A1, “METHODS FOR DIAGNOSIS, PROGNOSIS AND METHODS OF TREATMENT” (priority 2011, published 2016)
